Experimental data taken from patent publication US20040171074A1, “Structures of substrate binding pockets of SCF complexes” (MOUNT SINAI HOSPITAL, priority 2002, published 2004).
“Also recorded” adds a separate entry of the source.

Columns and labels:
phospho-Sic1 = experiment: P-Sic1 pull down: in vitro capture of phospho-Sic1 on immobilized wild type or mutant Cdc4-GST-Skp1, anti-Sic1 immunoblot; type: binding, yeast; conditions: Sic1 phosphorylated with Cln2-Cdc28, captured onto GST-Skp1/Cdc4 resin, anti-Sic1 detection
Protocol: Mutational analysis of the CPD binding surface. Mutants were tested in vitro by ability to bind phosphorylated Sic1 and then captured onto GST-Skp1/Cdc4 resin and detected with anti-sic1 antibody. Mutants were tested in vivo by ability to degrade GAL1-SIC1 or various phosphorylation mutants. Sites are as follows: 3=Thr 33, Thr 45, Ser 76; 4=Thr 5, Thr 33, Thr 45, Ser 76; 5=Thr 2, Thr 5, Thr 33, Thr 45, Ser 76; 6=Thr 2, Thr 5, Thr 33, Thr 45, Ser 69, Ser 76; 7=Thr 2, Thr 5, Thr 33, Thr 45, Ser 69, Ser 76, Ser 80. GAL1-SIC1 plasmids were transformed into a cdc4Δ strain containing a copy of CDC4 on a TRP1 ARS CEN plasmid. Strains were incubated for 2 days at 30° C.
Bacterially expressed His6-Sic1 was phosphorylated with Cln2-Cdc28 kinase purified from baculovirus infected Sf9 cells as described before (Nature paper). 1 ug of WT or mutant Cdc4-GST-Skp1, immoblized on GSH-Sepharose resin, was incubated with 0.5 ug phospho-Sic1 at 4 C for 1 h and washed 4 times. Captured complexes were resolved on SDS-PAGE and Sic1 visualized by anti-Sic1 Western blotting and ECL. For IEF-2D analysis, several Sic1 phosphorylation reactions were carried out for different time periods to obtain a spectrum of Sic1 that were phosphorylated at different numbers of its nine CDK sites. This pool of phospho-Sic1 (2.5 ug) was incubated with 5 μg of WT or mutant Cdc4-GST-Skp1 as described above. Different phosphorylation states of Sic1 were separated by denaturing isoelectric focusing (IEF)-2D gel electrophoresis and visualized by anti-Sic1 Western blotting and ECL. IEF was performed using pH 3-10NL Immobiline gel strips and IPGphore IEF system (Amersham pharmacia).
(§1) Cdc4 functional assays. CDC4 mutant alleles were assessed for complementation of a cdc4A strain in a plasmid shuffle assay (Nash et al., 2001). Sensitivity to SIC1 dosage was determined by transformation with pMT837 (GAL1-SIC1) or pMT767 (GAL1-SIC1^T33V) and plating on glucose medium or galactose medium. For in vitro capture of phospho-Sic1 by Cdc4, 0.5 μg of bacterially-expressed ^HIS6Sic1 was phosphorylated with immobilized Cln2-Cdc28 kinase from baculovirus-infected Sf9 cells and then incubated with 1 μg of immobilized wild type or mutant Cdc4^263-744-GST-Skp1, at 4° C. for 1 hr, washed 4 times and visualized by anti-Sic1 immunoblot. For isoelectric focusing (IEF)-2D gel analyses, an evenly distributed pool of phospho-Sic1 isoforms was generated by combining different time points in a Sic1 phosphorylation reaction. 2.5 μg of the phospho-Sic1 pool was bound to 5 μg of immobilized wild type or mutant Cdc4^1-744-GST-Skp1. Captured isoforms were separated by denaturing IEF-2D gel electrophoresis using pH3-10NL Immobiline gel strips (Amersham) and visualized by anti-Sic1 immunoblot. Alternatively, the pool of phospho-Sic1 isoforms was incubated in solution with a ubiquitination reaction mix containing ATP, ubiquitin, yeast E1, Cdc34 and either wild type or mutant SCF^Cdc4 complex, composed of a 1:1 ratio of bacterial Cdc4-GST-Skp1 and insect cell-produced Cdc53-Rbx1, at 30° C. for 1 h as previously described (Nash et al., 2001).

Skp1 = target: T1, Skp1 (Saccharomyces cerevisiae, UniProt P52286); experiment: Skp1 binding in vitro (pull down); design: species or system yeast
T1 construct: GST (N); made in house; host or cells: bacteria
T1 sequence (P52286 2-194 limits assumed): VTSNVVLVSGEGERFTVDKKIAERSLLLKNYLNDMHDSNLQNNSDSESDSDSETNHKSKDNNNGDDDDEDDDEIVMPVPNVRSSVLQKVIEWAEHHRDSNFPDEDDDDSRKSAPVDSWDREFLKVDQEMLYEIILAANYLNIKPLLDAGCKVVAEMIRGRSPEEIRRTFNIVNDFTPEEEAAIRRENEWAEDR
Source text: In order to probe the functional importance of amino acid residues on the highly conserved peptide binding surface, a panel of Cdc4 mutants (both single and double mutant) were generated and tested each for its ability to bind phospho Sic1 and Skp1 in vitro using a pull down assay and for its ability to substitute for wt-cdc4 in vivo using a cell viability assay. Of 12 single site mutants tested, only Arg 467. Arg485Ala Arg534Ala, and Trp 426 abolished both cell viability in vivo and phosphoSic1 binding in vitro. Together, these residues compose most of the interaction surface with the pThr, Pro CPD core. […] Presumably in the context of the full SCF complex in vivo this mutant is sufficiently well behaved to bind phospho Sic1.

cdc4Δ strain = experiment: plasmid shuffle assay: complementation of a cdc4Δ strain by CDC4 alleles; type: cell-based, yeast; conditions: viability of cdc4Δ strain on 5-FOA, 2 days at 30° C.
Protocol: All mutants on a TRP1 ARS CEN plasmid were transformed into a cdc4Δ strain (MT 1259) containing a wildtype copy of CDC4 on a URA3 ARS CEN plasmid. Cells were plated on either Trp^−Ura^− or 5-FOA medium for 2 days at 30° C. Viable cells on 5-FOA were grown in Trp medium and transformed with either wild type GAL1-SIC1, GAL1-SIC T45A, or GAL1-SIC T33V on a LEU2 ARS CEN pasmid. Cells were then plated on Leu- Trp-plates containing either glucose or galactose and incubated for 2 days at 30° C.
as §1

B1: R467A: mutant cdc4 polypeptide (protein)
chain: MGSFPLAEFPLRDIPVPYSYRVSGGIASSGSVTALVTAAGTHRNSSTAKTVETEDGEEDIDEYQRKRAAGSGESTPERSDFKRVKHDNHKTLHPVNLQNTGAASVDNDGLHNLTDISNDAEKLLMSVDDGSAAPSTLSVNMGVASHNVAAPTTVNAATITGSDVSNNVNSATINNPMEEGALPLSPTASSPGTTTPLAKTTKTINNNNNIADLIESKDSIISPEYLSDEIFSAINNNLPHAYFKNLLFRLVANMDRSELSDLGTLIKDNLKRDLITSLPFEISLKIFNYLQFEDIINSLGVSQNWNKIIRKSTSLWKKLLISENFVSPKGFNSLNLKLSQKYPKLSQQDRLRLSFLENIFILKNWYNPKFVPQRTTLRGHMTSVITCLQFEDNYVITGADDKMIRVYDSINKKFLLQLSGHDGGVWALKYAHGGILVSGSTDRTVRVWDIKKGCCTHVFKGHNSTVACLDIVEYKNIKYIVTGSRDNTLHVWKLPKESSVPDHGEEHDYPLVFHTPEENPYFVGVLRGHMASVRTVSGHGNIVVSGSYDNTLIVWDVAQMKCLYILSGHTDRIYSTIYDHERKRCISASMDTTIRIWDLENIWNNGECSYATNSASPCAKILGAMYTLQGHTALVGLLRLSDKFLVSAAADGSIRGWDANDYSRKFSYHHTNLSAITTFYVSDNILVSGSENQFNIYNLRSGKLVHANILKDADQIWSVNFKGKTLVAAVEKDGQSFLEILDFSKASKINYVSNPVNSSSSSLESISTSLGLTRTTIIP
P-Sic1 pull down (phospho-Sic1): no bind
P-Sic1 pull down (phospho-Sic1; listed as Arg 467): abolished
P-Sic1 pull down (phospho-Sic1; listed as Arg467Ala): unable to bind
Skp1 binding (Skp1): fully competent
shuffle (cdc4Δ strain): dead
shuffle (cdc4Δ strain; listed as Arg 467): abolished
shuffle (cdc4Δ strain; listed as Arg467Ala): unable

B2: R485A: mutant cdc4 polypeptide (protein)
chain: MGSFPLAEFPLRDIPVPYSYRVSGGIASSGSVTALVTAAGTHRNSSTAKTVETEDGEEDIDEYQRKRAAGSGESTPERSDFKRVKHDNHKTLHPVNLQNTGAASVDNDGLHNLTDISNDAEKLLMSVDDGSAAPSTLSVNMGVASHNVAAPTTVNAATITGSDVSNNVNSATINNPMEEGALPLSPTASSPGTTTPLAKTTKTINNNNNIADLIESKDSIISPEYLSDEIFSAINNNLPHAYFKNLLFRLVANMDRSELSDLGTLIKDNLKRDLITSLPFEISLKIFNYLQFEDIINSLGVSQNWNKIIRKSTSLWKKLLISENFVSPKGFNSLNLKLSQKYPKLSQQDRLRLSFLENIFILKNWYNPKFVPQRTTLRGHMTSVITCLQFEDNYVITGADDKMIRVYDSINKKFLLQLSGHDGGVWALKYAHGGILVSGSTDRTVRVWDIKKGCCTHVFKGHNSTVRCLDIVEYKNIKYIVTGSADNTLHVWKLPKESSVPDHGEEHDYPLVFHTPEENPYFVGVLRGHMASVRTVSGHGNIVVSGSYDNTLIVWDVAQMKCLYILSGHTDRIYSTIYDHERKRCISASMDTTIRIWDLENIWNNGECSYATNSASPCAKILGAMYTLQGHTALVGLLRLSDKFLVSAAADGSIRGWDANDYSRKFSYHHTNLSAITTFYVSDNILVSGSENQFNIYNLRSGKLVHANILKDADQIWSVNFKGKTLVAAVEKDGQSFLEILDFSKASKINYVSNPVNSSSSSLESISTSLGLTRTTIIP
P-Sic1 pull down (phospho-Sic1): no bind
P-Sic1 pull down (phospho-Sic1; listed as Arg485Ala): abolished; also recorded: unable to bind
Skp1 binding (Skp1): fully competent
shuffle (cdc4Δ strain): dead
shuffle (cdc4Δ strain; listed as Arg485Ala): abolished; also recorded: unable

B3: R534A: mutant cdc4 polypeptide (protein)
chain: MGSFPLAEFPLRDIPVPYSYRVSGGIASSGSVTALVTAAGTHRNSSTAKTVETEDGEEDIDEYQRKRAAGSGESTPERSDFKRVKHDNHKTLHPVNLQNTGAASVDNDGLHNLTDISNDAEKLLMSVDDGSAAPSTLSVNMGVASHNVAAPTTVNAATITGSDVSNNVNSATINNPMEEGALPLSPTASSPGTTTPLAKTTKTINNNNNIADLIESKDSIISPEYLSDEIFSAINNNLPHAYFKNLLFRLVANMDRSELSDLGTLIKDNLKRDLITSLPFEISLKIFNYLQFEDIINSLGVSQNWNKIIRKSTSLWKKLLISENFVSPKGFNSLNLKLSQKYPKLSQQDRLRLSFLENIFILKNWYNPKFVPQRTTLRGHMTSVITCLQFEDNYVITGADDKMIRVYDSINKKFLLQLSGHDGGVWALKYAHGGILVSGSTDRTVRVWDIKKGCCTHVFKGHNSTVRCLDIVEYKNIKYIVTGSRDNTLHVWKLPKESSVPDHGEEHDYPLVFHTPEENPYFVGVLRGHMASVATVSGHGNIVVSGSYDNTLIVWDVAQMKCLYILSGHTDRIYSTIYDHERKRCISASMDTTIRIWDLENIWNNGECSYATNSASPCAKILGAMYTLQGHTALVGLLRLSDKFLVSAAADGSIRGWDANDYSRKFSYHHTNLSAITTFYVSDNILVSGSENQFNIYNLRSGKLVHANILKDADQIWSVNFKGKTLVAAVEKDGQSFLEILDFSKASKINYVSNPVNSSSSSLESISTSLGLTRTTIIP
P-Sic1 pull down (phospho-Sic1): no bind
P-Sic1 pull down (phospho-Sic1; listed as Arg534Ala): abolished; also recorded: unable to bind
Skp1 binding (Skp1): fully competent
shuffle (cdc4Δ strain): dead
shuffle (cdc4Δ strain; listed as Arg534Ala): abolished; also recorded: unable
